Results on 17 molecules are retold here after article PMC4715182, “Structure of a Chaperone-Usher Pilus Reveals the Molecular Basis of Rod Uncoiling” (Cell, 2016).

Where “and” joins values, the source holds several entries; their conditions need not be identical. Equal values may be shown once.

One data set has as its target T1, PapA Gln106AzF, P04127.
T1 chain: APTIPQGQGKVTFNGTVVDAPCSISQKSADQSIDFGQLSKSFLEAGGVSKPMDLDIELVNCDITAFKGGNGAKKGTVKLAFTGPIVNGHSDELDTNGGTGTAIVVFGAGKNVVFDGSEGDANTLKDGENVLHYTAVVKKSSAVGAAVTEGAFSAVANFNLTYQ
Nature of the data set: pilus rod formation quantified by Sypro Ruby signal after ultracentrifugation. Particulars: chain shown with the change;; parent: est. 100; read off a plot.

Data set [1] concerns the molecule itself. Description: in vitro rod formation (pelleting by ultracentrifugation, negative stain EM, Sypro Ruby signal); purified PapD:PapA complexes at 50 μM, 20°C, 72 hr; four rounds of ultracentrifugation at 57,000 x g; 20 mM Tris (pH 7.5), 150 mM NaCl.
The next data set addresses T2, PapA Val143AzF, P04127.
T2 chain: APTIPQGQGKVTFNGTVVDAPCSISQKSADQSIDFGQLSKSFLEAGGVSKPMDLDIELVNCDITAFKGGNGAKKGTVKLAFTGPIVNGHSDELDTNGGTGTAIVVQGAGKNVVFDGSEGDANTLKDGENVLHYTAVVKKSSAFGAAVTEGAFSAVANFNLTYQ
Nature of the data set: pilus rod formation quantified by Sypro Ruby signal after ultracentrifugation. Particulars: chain shown with the change;; parent: est. 100; read off a plot.

The next data set concerns the target T3, PapA Val155AzF, P04127.
T3 chain: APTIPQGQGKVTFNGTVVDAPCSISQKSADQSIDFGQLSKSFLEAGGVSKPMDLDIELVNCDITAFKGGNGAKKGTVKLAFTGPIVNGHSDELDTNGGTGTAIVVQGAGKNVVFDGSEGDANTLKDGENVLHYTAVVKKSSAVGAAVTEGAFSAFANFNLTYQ
The data set is described as above. Particulars: chain shown with the change;; parent: est. 100; read off a plot.

Another data set addresses T4, PapA Thr76AzF, P04127.
T4 chain: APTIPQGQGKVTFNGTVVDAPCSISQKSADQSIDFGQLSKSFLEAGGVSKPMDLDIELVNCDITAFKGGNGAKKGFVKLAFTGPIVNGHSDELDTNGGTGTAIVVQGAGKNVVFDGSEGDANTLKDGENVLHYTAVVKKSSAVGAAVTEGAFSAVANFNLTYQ
The data set is described as above. The settings on record: chain shown with the change;; parent: est. 100; read off a plot.

Data set [2] deals with the molecule itself. Nature of the data set: SEC; purified PapDHis:PapA left to polymerize at 20°C for 16 hr at 38 μM; Superdex 200 10/300 increase; donor-strand exchange (DSE) products.
The next data set has as its target T5, PapA Val18AzF, P04127.
T5 chain: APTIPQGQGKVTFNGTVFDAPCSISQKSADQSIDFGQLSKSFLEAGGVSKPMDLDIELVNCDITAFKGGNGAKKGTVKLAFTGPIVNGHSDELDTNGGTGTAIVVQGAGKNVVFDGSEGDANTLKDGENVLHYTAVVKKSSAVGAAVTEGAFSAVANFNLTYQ
Description: pilus rod formation quantified by Sypro Ruby signal after ultracentrifugation. The settings on record: chain shown with the change;; parent: est. 100; read off a plot.

The next data set deals with T6, PapA Lys27AzF, P04127.
T6 chain: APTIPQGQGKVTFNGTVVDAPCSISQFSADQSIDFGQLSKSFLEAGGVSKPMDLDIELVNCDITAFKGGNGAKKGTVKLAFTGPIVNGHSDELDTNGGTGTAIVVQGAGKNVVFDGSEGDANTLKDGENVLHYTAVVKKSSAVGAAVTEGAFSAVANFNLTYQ
Described as above. The settings on record: chain shown with the change;; parent: est. 100; read off a plot.

The next data set deals with T7, PapA Lys50AzF, P04127.
T7 chain: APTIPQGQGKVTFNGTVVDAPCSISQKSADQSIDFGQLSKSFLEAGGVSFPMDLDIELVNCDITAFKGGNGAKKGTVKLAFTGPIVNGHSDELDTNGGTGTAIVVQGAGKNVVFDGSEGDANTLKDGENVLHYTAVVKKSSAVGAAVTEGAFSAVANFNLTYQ
The description is as above. Particulars: chain shown with the change;; parent: est. 100; read off a plot.

Data set [3] deals with the molecule itself. Description: SEC-MALS; sample of PapD:PapA Val18AzF; Superdex 200 10/300 increase; molecular weight of each peak.

B1: PapA wild-type, P04127 Q106AzF (protein)
chain: APTIPQGQGKVTFNGTVVDAPCSISQKSADQSIDFGQLSKSFLEAGGVSKPMDLDIELVNCDITAFKGGNGAKKGTVKLAFTGPIVNGHSDELDTNGGTGTAIVVFGAGKNVVFDGSEGDANTLKDGENVLHYTAVVKKSSAVGAAVTEGAFSAVANFNLTYQ
As to B1, the percent of parent (% of wild-type Sypro Ruby signal) with PapA Gln106AzF, P04127 is 93.

B2: PapA Val143AzF (natural protein)
chain: APTIPQGQGKVTFNGTVVDAPCSISQKSADQSIDFGQLSKSFLEAGGVSKPMDLDIELVNCDITAFKGGNGAKKGTVKLAFTGPIVNGHSDELDTNGGTGTAIVVQGAGKNVVFDGSEGDANTLKDGENVLHYTAVVKKSSAFGAAVTEGAFSAVANFNLTYQ
modifications: p-azido-L-phenylalanine (AzF) at 143
notes: PapA of uropathogenic E. coli with AzF at residue 143 by amber suppression; The new residue is the unnatural amino acid p-azido-L-phenylalanine; written as F with the modification
B2: in data set [1], the binding result is reported as “binds”.

B3: PapA wild-type, P04127 V143AzF (protein)
chain: APTIPQGQGKVTFNGTVVDAPCSISQKSADQSIDFGQLSKSFLEAGGVSKPMDLDIELVNCDITAFKGGNGAKKGTVKLAFTGPIVNGHSDELDTNGGTGTAIVVQGAGKNVVFDGSEGDANTLKDGENVLHYTAVVKKSSAFGAAVTEGAFSAVANFNLTYQ
For the molecule B3, in the data set with PapA Val143AzF, P04127, the percent of parent (% of wild-type Sypro Ruby signal) was determined as 94.

B4: PapA Gln106AzF (natural protein)
chain: APTIPQGQGKVTFNGTVVDAPCSISQKSADQSIDFGQLSKSFLEAGGVSKPMDLDIELVNCDITAFKGGNGAKKGTVKLAFTGPIVNGHSDELDTNGGTGTAIVVFGAGKNVVFDGSEGDANTLKDGENVLHYTAVVKKSSAVGAAVTEGAFSAVANFNLTYQ
modifications: p-azido-L-phenylalanine (AzF) at 106
notes: PapA of uropathogenic E. coli with AzF at residue 106 by amber suppression; The new residue is the unnatural amino acid p-azido-L-phenylalanine; written as F with the modification
As to B4, the binding result in [1] is recorded as “binds”.

B5: PapA wild-type, P04127 V155AzF (protein)
chain: APTIPQGQGKVTFNGTVVDAPCSISQKSADQSIDFGQLSKSFLEAGGVSKPMDLDIELVNCDITAFKGGNGAKKGTVKLAFTGPIVNGHSDELDTNGGTGTAIVVQGAGKNVVFDGSEGDANTLKDGENVLHYTAVVKKSSAVGAAVTEGAFSAFANFNLTYQ
As to B5, the percent of parent (% of wild-type Sypro Ruby signal) with PapA Val155AzF, P04127 came to 5.

B6: PapA Thr76AzF (natural protein)
chain: APTIPQGQGKVTFNGTVVDAPCSISQKSADQSIDFGQLSKSFLEAGGVSKPMDLDIELVNCDITAFKGGNGAKKGFVKLAFTGPIVNGHSDELDTNGGTGTAIVVQGAGKNVVFDGSEGDANTLKDGENVLHYTAVVKKSSAVGAAVTEGAFSAVANFNLTYQ
modifications: p-azido-L-phenylalanine (AzF) at 76
notes: PapA of uropathogenic E. coli with AzF at residue 76 by amber suppression; The new residue is the unnatural amino acid p-azido-L-phenylalanine; written as F with the modification
For the molecule B6, the binding result in data set [1] was “binds”.

B7: PapA Lys50AzF (natural protein)
chain: APTIPQGQGKVTFNGTVVDAPCSISQKSADQSIDFGQLSKSFLEAGGVSFPMDLDIELVNCDITAFKGGNGAKKGTVKLAFTGPIVNGHSDELDTNGGTGTAIVVQGAGKNVVFDGSEGDANTLKDGENVLHYTAVVKKSSAVGAAVTEGAFSAVANFNLTYQ
modifications: p-azido-L-phenylalanine (AzF) at 50
notes: PapA of uropathogenic E. coli with AzF at residue 50 by amber suppression; The new residue is the unnatural amino acid p-azido-L-phenylalanine; written as F with the modification
Turning to B7, the binding result in data set [1] is on record as “binds”.

B8: PapA Lys27AzF (natural protein)
chain: APTIPQGQGKVTFNGTVVDAPCSISQFSADQSIDFGQLSKSFLEAGGVSKPMDLDIELVNCDITAFKGGNGAKKGTVKLAFTGPIVNGHSDELDTNGGTGTAIVVQGAGKNVVFDGSEGDANTLKDGENVLHYTAVVKKSSAVGAAVTEGAFSAVANFNLTYQ
modifications: p-azido-L-phenylalanine (AzF) at 27
notes: PapA of uropathogenic E. coli with AzF at residue 27 by amber suppression; The new residue is the unnatural amino acid p-azido-L-phenylalanine; written as F with the modification
As to B8, the binding result in data set [1] is “binds”.

B9: PapA wild-type, P04127 T76AzF (protein)
chain: APTIPQGQGKVTFNGTVVDAPCSISQKSADQSIDFGQLSKSFLEAGGVSKPMDLDIELVNCDITAFKGGNGAKKGFVKLAFTGPIVNGHSDELDTNGGTGTAIVVQGAGKNVVFDGSEGDANTLKDGENVLHYTAVVKKSSAVGAAVTEGAFSAVANFNLTYQ
On to B9, for which, in the data set with PapA Thr76AzF, P04127, the percent of parent (% of wild-type Sypro Ruby signal) amounted to 96.

B10: PapA wild-type (natural protein)
chain: APTIPQGQGKVTFNGTVVDAPCSISQKSADQSIDFGQLSKSFLEAGGVSKPMDLDIELVNCDITAFKGGNGAKKGTVKLAFTGPIVNGHSDELDTNGGTGTAIVVQGAGKNVVFDGSEGDANTLKDGENVLHYTAVVKKSSAVGAAVTEGAFSAVANFNLTYQ
notes: PapA, major P pilus rod subunit of uropathogenic E. coli; Ala1 is the very N terminus in the model; also called major pilus subunit PapA; P pilus rod subunit
Take B10: the binding result in [2] is on record as “binds”.

B11: PapA wild-type, P04127 V18AzF (protein)
chain: APTIPQGQGKVTFNGTVFDAPCSISQKSADQSIDFGQLSKSFLEAGGVSKPMDLDIELVNCDITAFKGGNGAKKGTVKLAFTGPIVNGHSDELDTNGGTGTAIVVQGAGKNVVFDGSEGDANTLKDGENVLHYTAVVKKSSAVGAAVTEGAFSAVANFNLTYQ
For B11, the percent of parent (% of wild-type Sypro Ruby signal) in the data set with PapA Val18AzF, P04127 worked out at 5.

B12: PapA wild-type, P04127 K27AzF (protein)
chain: APTIPQGQGKVTFNGTVVDAPCSISQFSADQSIDFGQLSKSFLEAGGVSKPMDLDIELVNCDITAFKGGNGAKKGTVKLAFTGPIVNGHSDELDTNGGTGTAIVVQGAGKNVVFDGSEGDANTLKDGENVLHYTAVVKKSSAVGAAVTEGAFSAVANFNLTYQ
For the molecule B12, the percent of parent (% of wild-type Sypro Ruby signal) with PapA Lys27AzF, P04127 turned out to be 93.

B13: PapA wild-type, P04127 K50AzF (protein)
chain: APTIPQGQGKVTFNGTVVDAPCSISQKSADQSIDFGQLSKSFLEAGGVSFPMDLDIELVNCDITAFKGGNGAKKGTVKLAFTGPIVNGHSDELDTNGGTGTAIVVQGAGKNVVFDGSEGDANTLKDGENVLHYTAVVKKSSAVGAAVTEGAFSAVANFNLTYQ
For the molecule B13, in the data set with PapA Lys50AzF, P04127, the percent of parent (% of wild-type Sypro Ruby signal) was 72.

B14: PapA Val18AzF (natural protein)
chain: APTIPQGQGKVTFNGTVFDAPCSISQKSADQSIDFGQLSKSFLEAGGVSKPMDLDIELVNCDITAFKGGNGAKKGTVKLAFTGPIVNGHSDELDTNGGTGTAIVVQGAGKNVVFDGSEGDANTLKDGENVLHYTAVVKKSSAVGAAVTEGAFSAVANFNLTYQ
modifications: p-azido-L-phenylalanine (AzF) at 18
notes: PapA of uropathogenic E. coli with AzF at residue 18 by amber suppression; The new residue is the unnatural amino acid p-azido-L-phenylalanine; written as F with the modification; also called Val18 mutant
Consider B14, for which, in [3], the “stoichiometry N” value was 2 and 3.

B15: PapA Asn96AzF (natural protein)
chain: APTIPQGQGKVTFNGTVVDAPCSISQKSADQSIDFGQLSKSFLEAGGVSKPMDLDIELVNCDITAFKGGNGAKKGTVKLAFTGPIVNGHSDELDTFGGTGTAIVVQGAGKNVVFDGSEGDANTLKDGENVLHYTAVVKKSSAVGAAVTEGAFSAVANFNLTYQ
modifications: p-azido-L-phenylalanine (AzF) at 96
notes: PapA of uropathogenic E. coli with AzF at residue 96 by amber suppression; The new residue is the unnatural amino acid p-azido-L-phenylalanine; written as F with the modification
For B15, the binding result in [2] is listed as “binds”.

B16: PapA Val155AzF (natural protein)
chain: APTIPQGQGKVTFNGTVVDAPCSISQKSADQSIDFGQLSKSFLEAGGVSKPMDLDIELVNCDITAFKGGNGAKKGTVKLAFTGPIVNGHSDELDTNGGTGTAIVVQGAGKNVVFDGSEGDANTLKDGENVLHYTAVVKKSSAVGAAVTEGAFSAFANFNLTYQ
modifications: p-azido-L-phenylalanine (AzF) at 155
notes: PapA of uropathogenic E. coli with AzF at residue 155 by amber suppression; The new residue is the unnatural amino acid p-azido-L-phenylalanine; written as F with the modification
For the molecule B16, the binding result in data set [2] is listed as “binds”.

B17: PapA Asp126AzF (natural protein)
chain: APTIPQGQGKVTFNGTVVDAPCSISQKSADQSIDFGQLSKSFLEAGGVSKPMDLDIELVNCDITAFKGGNGAKKGTVKLAFTGPIVNGHSDELDTNGGTGTAIVVQGAGKNVVFDGSEGDANTLKFGENVLHYTAVVKKSSAVGAAVTEGAFSAVANFNLTYQ
modifications: p-azido-L-phenylalanine (AzF) at 126
notes: PapA of uropathogenic E. coli with AzF at residue 126 by amber suppression; The new residue is the unnatural amino acid p-azido-L-phenylalanine; written as F with the modification
For B17, the binding result in [2] was “binds”.
